{"source": "IntAct's records for PubMed 9722563", "parents": {"B1": {"name": "Integrin beta-1 (Gallus gallus (Chicken)), P07228 (parent)", "chain": "MAETNLTLLTWAGILCCLIWSGSAQQGGSDCIKANAKSCGECIQAGPNCGWCKKTDFLQEGEPTSARCDDLAALKSKGCPEQDIENPRGSKRVLEDREVTNRKIGAAEKLKPEAITQIQPQKLVLQLRVGEPQTFSLKFKRAEDYPIDLYYLMDLSYSMKDDLENVKSLGTALMREMEKITSDFRIGFGSFVEKTVMPYISTTPAKLRNPCTGDQNCTSPFSYKNVLSLTSEGNKFNELVGKQHISGNLDSPEGGFDAIMQVAVCGDQIGWRNVTRLLVFSTDAGFHFAGDGKLGGIVLPNDGKCHLENNMYTMSHYYDYPSIAHLVQKLSENNIQTIFAVTEEFQAVYKELKNLIPKSAVGTLSSNSSNVIQLIIDAYNSLSSEVILENSKLPKEVTISYKSYCKNGVNDTQEDGRKCSNISIGDEVRFEINVTANECPKKGQNETIKIKPLGFTEEVEIHLQFICDCLCQSEGEPNSPACHDGNGTFECGACRCNEGRIGRLCECSTDEVNSEDMDAYCRRENSTEICSNNGECICGQCVCKKRENTNEVYSGKYCECDNFNCDRSNGLICGGNGICKCRVCECFPNFTGSACDCSLDTTPCMAGNGQICNGRGTCECGTCNCTDPKFQGPTCEMCQTCLGVCAEHKDCVQCRAFEKGEKKETCSQECMHFNMTRVESRGKLPQPVHPDPLSHCKEKDVGDCWFYFTYSVNSNGEASVHVVETPECPSGPDIIPIVAGVVAGIVLIGLALLLIWKLLMIIHDRREFAKFEKEKMNAKWDTGENPIYKSAVTTVVNPKYEGK"}}, "data": [{"variants_of": "B1", "settings": "with flna_human FLNA", "values": [{"variant": "N797I", "effect of a mutation on the interaction": "decreasing interaction"}, {"variant": "N797D", "effect of a mutation on the interaction": "decreasing interaction"}, {"variant": "P786A", "effect of a mutation on the interaction": "decreasing interaction"}, {"variant": "Y788A", "effect of a mutation on the interaction": "disrupting interaction"}, {"variant": "Y788E", "effect of a mutation on the interaction": "disrupting interaction"}, {"variant": "Y788F", "effect of a mutation on the interaction": "decreasing interaction"}, {"variant": "N785D", "effect of a mutation on the interaction": "decreasing interaction"}, {"variant": "D764V", "effect of a mutation on the interaction": "decreasing interaction"}]}]}
